# The supplement of paper PMC7877785
# ± gives the uncertainty stated by the source.
# Assay: self-splicing fitness, log relative to wild type (ln ratio); higher = more splicing; Tetrahymena group I intron in knt gene, E. coli kanamycin selection, DiMSum; sequences stand for … in CUCUCU…GGAGGGAAAAGUUAUCAGGCAUGCACCUGGUAGCUAGUCUUUAAACCAAUAGAUUGCAUCGGUUUAAAAGGCAAGACCGUCAAAUUGCGGGAAAGGGGUCAACAGCCGUUCAGUACCAAGUCUCAGGGGAAACUUUGAGAUGGCCUUGCAAAGGGUAUGGUAAUAAGCUGACGGACAUGGUCCUAACCACGCAGCCAAGUCCUAAGUCAACAGAUCUUCUGUUGAUAUGGAUGCAGUUCACAGACUAAAUGUCGGUCGGGGAAGAUGUAUUCUUCUCAUAAGAUAUAGUCGGACCUCUCCUUAAUGGGAGCUAGCGGAUGAAGUGAUGCAACACUGGAGCCGCUGGGAACUAAUUUGUAUGCGAAAGUAUAUUGAUUAGUUUUGGAGUACUCGUGGUCG
# Method in brief: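 Fitness was computed with DiMSum as the error-weighted combination of replicate fold changes, kanamycin versus none, each normalised to wild type. The library randomised all eight intron nucleotides of the P1ex region, with the intron placed in the knt kanamycin-resistance gene on pET-22b(+) in E. coli BL21(DE3). Six replicate transformations were grown overnight at 37°C or 30°C on LB agar with or without 25 μg/mL kanamycin, plus 100 μg/mL carbenicillin, 50 μM IPTG and 0.2% rhamnose. Pooled colonies were amplicon-sequenced on an Illumina HiSeq 2500.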
Sequence,self-splicing fitness (ln) (30 °C),self-splicing fitness (ln) (37 °C)
UUAUAGCAAUAUUACGCUUU,-2.99 ± 0.28,-2.6 ± 0.26
AGCAAGCAAUAUUACGUCGC,–,-0.083 ± 0.23
UCGAAGCAAUAUUACGUAGU,-2.53 ± 0.11,-0.666 ± 0.11
CUGAAGCAAUAUUACGUGAU,-2.7 ± 0.12,-1.07 ± 0.15
UGAAAGCAAUAUUACGACCU,-0.0194 ± 0.1,0.188 ± 0.12
ACCUAGCAAUAUUACGGUGC,-1.87 ± 0.074,-0.926 ± 0.092
CAGUAGCAAUAUUACGAUCG,0.0663 ± 0.15,0.475 ± 0.17
UCAAAGCAAUAUUACGGGCG,-0.842 ± 0.065,-0.266 ± 0.083
CCUGAGCAAUAUUACGGGCU,-2.51 ± 0.16,-2.3 ± 0.32
UGGGAGCAAUAUUACGCAUA,-1.98 ± 0.27,-1.22 ± 0.22
GGACAGCAAUAUUACGUUAC,-2.86 ± 0.2,-2.49 ± 0.26
UUGAAGCAAUAUUACGUACA,0.247 ± 0.1,0.767 ± 0.14
CGUAAGCAAUAUUACGACUG,-0.564 ± 0.081,0.421 ± 0.13
UUGCAGCAAUAUUACGGUGG,-1.79 ± 0.1,-0.742 ± 0.1
UAGUAGCAAUAUUACGCCCU,-1.34 ± 0.21,-0.583 ± 0.2
AAUAAGCAAUAUUACGAACG,-1.5 ± 0.12,-0.285 ± 0.17
UUAUAGCAAUAUUACGCAGG,-1.06 ± 0.13,-0.791 ± 0.16
UGCUAGCAAUAUUACGGCGG,-1.15 ± 0.16,-0.887 ± 0.23
UAAGAGCAAUAUUACGAAAC,–,-2.99 ± 0.37
GAACAGCAAUAUUACGCCCU,-1.69 ± 0.42,0.579 ± 0.37
UGGAAGCAAUAUUACGUAUC,-3.27 ± 0.27,-2.28 ± 0.27
GGAGAGCAAUAUUACGAAGA,-3.05 ± 0.44,-1.59 ± 0.39
UCGGAGCAAUAUUACGGUUC,–,-2.89 ± 0.43
AAAAAGCAAUAUUACGCAAA,-1.15 ± 0.13,-1.43 ± 0.17
UUCUAGCAAUAUUACGAAUA,-2.64 ± 0.3,-0.478 ± 0.17

Sequence,self-splicing fitness (ln) (30 °C),self-splicing fitness (ln) (37 °C)
GAUAAGCAAUAUUACGGUAU,-2.17 ± 0.1,-1.46 ± 0.12
CUCGAGCAAUAUUACGCUUU,-4.13 ± 0.46,-2.31 ± 0.31
AAUGAGCAAUAUUACGAUAC,-4 ± 0.33,–
UGGUAGCAAUAUUACGUCGC,-3.78 ± 0.21,-2.88 ± 0.19
GCCAAGCAAUAUUACGGGCU,-4.88 ± 0.28,-2.98 ± 0.23
UUAUAGCAAUAUUACGCGCG,0.0634 ± 0.16,-0.475 ± 0.18
CCAAAGCAAUAUUACGGUCC,-4.23 ± 0.46,-2.13 ± 0.3
GAAUAGCAAUAUUACGCUUU,-2.02 ± 0.15,-1.35 ± 0.16
CUGAAGCAAUAUUACGCCUA,-3.82 ± 0.24,-3.63 ± 0.33
UAGGAGCAAUAUUACGAUUA,-0.679 ± 0.065,0.31 ± 0.094
CGGGAGCAAUAUUACGCGUU,-1.22 ± 0.23,–
AUGAAGCAAUAUUACGUGUU,-1.64 ± 0.063,-1.64 ± 0.078
GGUGAGCAAUAUUACGUGUG,-3.28 ± 0.2,-2.47 ± 0.2
GACCAGCAAUAUUACGUCGG,-2.79 ± 0.21,-1.98 ± 0.28
UAAUAGCAAUAUUACGAUCA,-0.744 ± 0.085,0.387 ± 0.1
CGUAAGCAAUAUUACGCAUG,-1.88 ± 0.13,-0.863 ± 0.13
GCCAAGCAAUAUUACGGAAC,-1.73 ± 0.18,-0.77 ± 0.18
CGUCAGCAAUAUUACGCAAC,-3.74 ± 0.3,-2.47 ± 0.23
GGUGAGCAAUAUUACGUUAU,-3.23 ± 0.2,-1.84 ± 0.19
GCGGAGCAAUAUUACGGUAG,-2.77 ± 0.23,–
GCAUAGCAAUAUUACGACCC,-0.0863 ± 0.27,0.324 ± 0.39
ACCGAGCAAUAUUACGCUGU,-3.32 ± 0.17,-0.834 ± 0.13
CUAUAGCAAUAUUACGUGAC,-1.2 ± 0.15,-0.55 ± 0.16
AUCAAGCAAUAUUACGCCCU,0.228 ± 0.14,0.617 ± 0.18
GGUUAGCAAUAUUACGUCAG,-3.16 ± 0.47,–

Sequence,self-splicing fitness (ln) (30 °C),self-splicing fitness (ln) (37 °C)
UUCAAGCAAUAUUACGGUGG,-1.54 ± 0.12,-0.439 ± 0.13
GCAAAGCAAUAUUACGAUGC,-3.46 ± 0.24,-2.53 ± 0.32
AACUAGCAAUAUUACGUCAU,-2.91 ± 0.13,-1.21 ± 0.12
CGCCAGCAAUAUUACGUCAU,-4.39 ± 0.19,-3.12 ± 0.18
CCCGAGCAAUAUUACGCUUU,–,-1.35 ± 0.19
GUAUAGCAAUAUUACGCGGU,–,-2.53 ± 0.44
GGUGAGCAAUAUUACGCGAA,-2.96 ± 0.14,-1.65 ± 0.13
UACUAGCAAUAUUACGGCUU,-1.2 ± 0.096,0.146 ± 0.12
CUUUAGCAAUAUUACGCCCU,-3.13 ± 0.38,-3.23 ± 0.25
UCCAAGCAAUAUUACGCGUU,-4.5 ± 0.19,-2.33 ± 0.15
AUUUAGCAAUAUUACGUCUG,-1.73 ± 0.11,-1.15 ± 0.11
UGUGAGCAAUAUUACGAUCG,-1.36 ± 0.1,0.456 ± 0.17
GCAGAGCAAUAUUACGUAUA,-1.41 ± 0.22,-2.76 ± 0.47
ACUAAGCAAUAUUACGGCGU,-0.894 ± 0.078,-0.0271 ± 0.1
CCCUAGCAAUAUUACGUGCU,-2.99 ± 0.17,-2.58 ± 0.24
AAAUAGCAAUAUUACGUGCG,-0.841 ± 0.13,-0.149 ± 0.15
AGUUAGCAAUAUUACGGGCC,-2.24 ± 0.21,-1.61 ± 0.18
ACUGAGCAAUAUUACGGAUU,-3.91 ± 0.27,-1.59 ± 0.16
GGACAGCAAUAUUACGCGAG,-1.24 ± 0.058,-0.0238 ± 0.063
AUCAAGCAAUAUUACGCACU,-0.00274 ± 0.081,0.0749 ± 0.097
ACUCAGCAAUAUUACGUACA,-1.74 ± 0.1,-0.876 ± 0.1
GCUGAGCAAUAUUACGCAAC,-2.18 ± 0.24,-2.11 ± 0.37
CCUGAGCAAUAUUACGGAGU,-3.26 ± 0.31,-1.92 ± 0.18
UAGCAGCAAUAUUACGUUUC,-2.78 ± 0.29,-1.85 ± 0.33
UCUCAGCAAUAUUACGCCGC,-2.99 ± 0.34,-1.52 ± 0.36

Sequence,self-splicing fitness (ln) (30 °C),self-splicing fitness (ln) (37 °C)
GUAGAGCAAUAUUACGUCAC,-1.65 ± 0.1,-1.06 ± 0.12
UCGUAGCAAUAUUACGAUUA,-2 ± 0.3,-0.78 ± 0.17
AGUGAGCAAUAUUACGUACC,-0.317 ± 0.2,-0.261 ± 0.28
AUCAAGCAAUAUUACGCUUA,-1.75 ± 0.1,-0.843 ± 0.1
GGCGAGCAAUAUUACGGAUU,-1.21 ± 0.17,-1.06 ± 0.24
GAGAAGCAAUAUUACGACCA,-1.12 ± 0.18,0.744 ± 0.3
UUUCAGCAAUAUUACGGCAG,-0.779 ± 0.17,0.0981 ± 0.19
CCUAAGCAAUAUUACGUCGU,-3.14 ± 0.39,-2.08 ± 0.19
UGCGAGCAAUAUUACGCUUU,-2.38 ± 0.15,-3.02 ± 0.28
AGACAGCAAUAUUACGUGUC,-3.93 ± 0.21,-3.7 ± 0.2
AAUCAGCAAUAUUACGCUCC,-1.54 ± 0.14,-0.129 ± 0.11
UACUAGCAAUAUUACGAAAG,-2.94 ± 0.11,-1.93 ± 0.13
GUGCAGCAAUAUUACGUGAA,-0.187 ± 0.1,-1.19 ± 0.14
UUAUAGCAAUAUUACGCCGG,-0.862 ± 0.19,-0.599 ± 0.32
GUCGAGCAAUAUUACGAAUG,-4.06 ± 0.35,-0.777 ± 0.2
AGCGAGCAAUAUUACGAGCA,-0.722 ± 0.11,-0.526 ± 0.11
UCCGAGCAAUAUUACGUUGG,-3.33 ± 0.21,-1.78 ± 0.24
CCCAAGCAAUAUUACGCAGA,-2.74 ± 0.21,-2.72 ± 0.14
GAGAAGCAAUAUUACGUGCC,-0.556 ± 0.11,-0.064 ± 0.11
GUGUAGCAAUAUUACGUGGG,-4.25 ± 0.21,-4.08 ± 0.26
AGUUAGCAAUAUUACGCCGA,-2.78 ± 0.46,-1.71 ± 0.39
AGGUAGCAAUAUUACGGCCA,0.159 ± 0.018,0.165 ± 0.037
GUCCAGCAAUAUUACGGGGG,-2.01 ± 0.1,-1.55 ± 0.14
